Measured values taken from patent US12679878B2, “CRF2 receptor agonists and their use in therapy” (SANOFI, priority 2020, dated 2026).
Starred links: 1 amine or outer side, 2 acyl side, 3 side chain; linkers in the order of their positions; H or OH if unused. Non-standard residues stand in square brackets, D forms with d. Groups on a side chain read outwards from the residue. No end group written: not given here. *: point of attachment. C18 diacid = O=C(O)CCCCCCCCCCCCCCCCC(=O)*; γGlu = O=C(O)[C@H](CCC(=O)[*:2])N[*:1]; Palmitoyl = CCCCCCCCCCCCCCCC(=O)*; AEEA = NCCOCCOCC(=O)O; Aib = CC(C)(N)C(=O)O

Target: rat CRF2R α receptor (rat, UniProt P47866 20-411)
Assay: cell-based or functional assay

Chain of rat CRF2R α receptor (P47866 20-411): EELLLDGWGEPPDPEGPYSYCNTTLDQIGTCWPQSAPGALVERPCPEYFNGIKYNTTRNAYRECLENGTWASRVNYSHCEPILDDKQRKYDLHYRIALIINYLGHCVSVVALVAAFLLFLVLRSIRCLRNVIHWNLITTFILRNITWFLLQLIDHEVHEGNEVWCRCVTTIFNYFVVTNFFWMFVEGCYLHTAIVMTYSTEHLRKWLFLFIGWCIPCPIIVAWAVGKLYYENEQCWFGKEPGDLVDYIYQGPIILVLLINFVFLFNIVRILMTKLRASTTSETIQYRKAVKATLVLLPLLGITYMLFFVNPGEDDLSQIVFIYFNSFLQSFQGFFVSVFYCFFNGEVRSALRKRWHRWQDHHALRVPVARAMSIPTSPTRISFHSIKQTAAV

Row | Binder | EC50 [nM], 0% HSA (cAMP, A7R5 cells) [nM]
1 | IVLSLD[dV]PTKLK([γGlu-Palmitoyl])QKLLKQERQRKEREQAEKNKRILERV-NH2 (N-terminus assumed; SMILES CCCCCCCCCCCCCCCC(=O)N[C@@H](CCC(=O)NCCCC[C@H](NC(=O)[C@H](CC(C)C)NC(=O)[C@H](CCCCN)NC(=O)[C@@H](NC(=O)[C@@H]1CCCN1C(=O)[C@H](NC(=O)[C@H](CC(=O)O)NC(=O)[C@H](CC(C)C)NC(=O)[C@H](CO)NC(=O)[C@H](CC(C)C)NC(=O)[C@@H](NC(=O)[C@@H](N)[C@@H](C)CC)C(C)C)C(C)C)[C@@H](C)O)C(=O)N[C@@H](CCC(N)=O)C(=O)N[C@@H](CCCCN)C(=O)N[C@@H](CC(C)C)C(=O)N[C@@H](CC(C)C)C(=O)N[C@@H](CCCCN)C(=O)N[C@@H](CCC(N)=O)C(=O)N[C@@H](CCC(=O)O)C(=O)N[C@@H](CCCNC(=N)N)C(=O)N[C@@H](CCC(N)=O)C(=O)N[C@@H](CCCNC(=N)N)C(=O)N[C@@H](CCCCN)C(=O)N[C@@H](CCC(=O)O)C(=O)N[C@@H](CCCNC(=N)N)C(=O)N[C@@H](CCC(=O)O)C(=O)N[C@@H](CCC(N)=O)C(=O)N[C@@H](C)C(=O)N[C@@H](CCC(=O)O)C(=O)N[C@@H](CCCCN)C(=O)N[C@@H](CC(N)=O)C(=O)N[C@@H](CCCCN)C(=O)N[C@@H](CCCNC(=N)N)C(=O)N[C@H](C(=O)N[C@@H](CC(C)C)C(=O)N[C@@H](CCC(=O)O)C(=O)N[C@@H](CCCNC(=N)N)C(=O)N[C@H](C(N)=O)C(C)C)[C@@H](C)CC)C(=O)O) [peptide of SEQ ID NO: 18] | 0.02
2 | IVLSLD[dV]PTKLK([AEEA-AEEA-γGlu-C18 diacid])QKLLKQERQRK[Aib]REQAEKNKRILERV-NH2 (N-terminus assumed; SMILES CC[C@H](C)[C@H](N)C(=O)N[C@H](C(=O)N[C@@H](CC(C)C)C(=O)N[C@@H](CO)C(=O)N[C@@H](CC(C)C)C(=O)N[C@@H](CC(=O)O)C(=O)N[C@@H](C(=O)N1CCC[C@H]1C(=O)N[C@H](C(=O)N[C@@H](CCCCN)C(=O)N[C@@H](CC(C)C)C(=O)N[C@@H](CCCCNC(=O)COCCOCCNC(=O)COCCOCCNC(=O)CC[C@H](NC(=O)CCCCCCCCCCCCCCCCC(=O)O)C(=O)O)C(=O)N[C@@H](CCC(N)=O)C(=O)N[C@@H](CCCCN)C(=O)N[C@@H](CC(C)C)C(=O)N[C@@H](CC(C)C)C(=O)N[C@@H](CCCCN)C(=O)N[C@@H](CCC(N)=O)C(=O)N[C@@H](CCC(=O)O)C(=O)N[C@@H](CCCNC(=N)N)C(=O)N[C@@H](CCC(N)=O)C(=O)N[C@@H](CCCNC(=N)N)C(=O)N[C@@H](CCCCN)C(=O)NC(C)(C)C(=O)N[C@@H](CCCNC(=N)N)C(=O)N[C@@H](CCC(=O)O)C(=O)N[C@@H](CCC(N)=O)C(=O)N[C@@H](C)C(=O)N[C@@H](CCC(=O)O)C(=O)N[C@@H](CCCCN)C(=O)N[C@@H](CC(N)=O)C(=O)N[C@@H](CCCCN)C(=O)N[C@@H](CCCNC(=N)N)C(=O)N[C@H](C(=O)N[C@@H](CC(C)C)C(=O)N[C@@H](CCC(=O)O)C(=O)N[C@@H](CCCNC(=N)N)C(=O)N[C@H](C(N)=O)C(C)C)[C@@H](C)CC)[C@@H](C)O)C(C)C)C(C)C) [peptide of SEQ ID NO: 36] | 13.3
3 | IVLSLDVPIKLK([AEEA-AEEA-γGlu-C18 diacid])QILLEQAKQKKLRAQAETNVRILERV-NH2 (N-terminus assumed; SMILES CC[C@H](C)[C@H](N)C(=O)N[C@H](C(=O)N[C@@H](CC(C)C)C(=O)N[C@@H](CO)C(=O)N[C@@H](CC(C)C)C(=O)N[C@@H](CC(=O)O)C(=O)N[C@H](C(=O)N1CCC[C@H]1C(=O)N[C@H](C(=O)N[C@@H](CCCCN)C(=O)N[C@@H](CC(C)C)C(=O)N[C@@H](CCCCNC(=O)COCCOCCNC(=O)COCCOCCNC(=O)CC[C@H](NC(=O)CCCCCCCCCCCCCCCCC(=O)O)C(=O)O)C(=O)N[C@@H](CCC(N)=O)C(=O)N[C@H](C(=O)N[C@@H](CC(C)C)C(=O)N[C@@H](CC(C)C)C(=O)N[C@@H](CCC(=O)O)C(=O)N[C@@H](CCC(N)=O)C(=O)N[C@@H](C)C(=O)N[C@@H](CCCCN)C(=O)N[C@@H](CCC(N)=O)C(=O)N[C@@H](CCCCN)C(=O)N[C@@H](CCCCN)C(=O)N[C@@H](CC(C)C)C(=O)N[C@@H](CCCNC(=N)N)C(=O)N[C@@H](C)C(=O)N[C@@H](CCC(N)=O)C(=O)N[C@@H](C)C(=O)N[C@@H](CCC(=O)O)C(=O)N[C@H](C(=O)N[C@@H](CC(N)=O)C(=O)N[C@H](C(=O)N[C@@H](CCCNC(=N)N)C(=O)N[C@H](C(=O)N[C@@H](CC(C)C)C(=O)N[C@@H](CCC(=O)O)C(=O)N[C@@H](CCCNC(=N)N)C(=O)N[C@H](C(N)=O)C(C)C)[C@@H](C)CC)C(C)C)[C@@H](C)O)[C@@H](C)CC)[C@@H](C)CC)C(C)C)C(C)C) [peptide of SEQ ID NO: 43] | 11.5
4 | IVLSLDVPIKLK([AEEA-AEEA-γGlu-C18 diacid])QILLEQAKQK[Aib]LKAQAETNVRILERV-NH2 (N-terminus assumed; SMILES CC[C@H](C)[C@H](N)C(=O)N[C@H](C(=O)N[C@@H](CC(C)C)C(=O)N[C@@H](CO)C(=O)N[C@@H](CC(C)C)C(=O)N[C@@H](CC(=O)O)C(=O)N[C@H](C(=O)N1CCC[C@H]1C(=O)N[C@H](C(=O)N[C@@H](CCCCN)C(=O)N[C@@H](CC(C)C)C(=O)N[C@@H](CCCCNC(=O)COCCOCCNC(=O)COCCOCCNC(=O)CC[C@H](NC(=O)CCCCCCCCCCCCCCCCC(=O)O)C(=O)O)C(=O)N[C@@H](CCC(N)=O)C(=O)N[C@H](C(=O)N[C@@H](CC(C)C)C(=O)N[C@@H](CC(C)C)C(=O)N[C@@H](CCC(=O)O)C(=O)N[C@@H](CCC(N)=O)C(=O)N[C@@H](C)C(=O)N[C@@H](CCCCN)C(=O)N[C@@H](CCC(N)=O)C(=O)N[C@@H](CCCCN)C(=O)NC(C)(C)C(=O)N[C@@H](CC(C)C)C(=O)N[C@@H](CCCCN)C(=O)N[C@@H](C)C(=O)N[C@@H](CCC(N)=O)C(=O)N[C@@H](C)C(=O)N[C@@H](CCC(=O)O)C(=O)N[C@H](C(=O)N[C@@H](CC(N)=O)C(=O)N[C@H](C(=O)N[C@@H](CCCNC(=N)N)C(=O)N[C@H](C(=O)N[C@@H](CC(C)C)C(=O)N[C@@H](CCC(=O)O)C(=O)N[C@@H](CCCNC(=N)N)C(=O)N[C@H](C(N)=O)C(C)C)[C@@H](C)CC)C(C)C)[C@@H](C)O)[C@@H](C)CC)[C@@H](C)CC)C(C)C)C(C)C) [peptide of SEQ ID NO: 45] | 47.3
5 | IVLSLD[dV]PIKLK([AEEA-AEEA-γGlu-C18 diacid])QILLEQERQK[Aib]QRQQAEKNKQILAQV-NH2 (N-terminus assumed; SMILES CC[C@H](C)[C@H](N)C(=O)N[C@H](C(=O)N[C@@H](CC(C)C)C(=O)N[C@@H](CO)C(=O)N[C@@H](CC(C)C)C(=O)N[C@@H](CC(=O)O)C(=O)N[C@@H](C(=O)N1CCC[C@H]1C(=O)N[C@H](C(=O)N[C@@H](CCCCN)C(=O)N[C@@H](CC(C)C)C(=O)N[C@@H](CCCCNC(=O)COCCOCCNC(=O)COCCOCCNC(=O)CC[C@H](NC(=O)CCCCCCCCCCCCCCCCC(=O)O)C(=O)O)C(=O)N[C@@H](CCC(N)=O)C(=O)N[C@H](C(=O)N[C@@H](CC(C)C)C(=O)N[C@@H](CC(C)C)C(=O)N[C@@H](CCC(=O)O)C(=O)N[C@@H](CCC(N)=O)C(=O)N[C@@H](CCC(=O)O)C(=O)N[C@@H](CCCNC(=N)N)C(=O)N[C@@H](CCC(N)=O)C(=O)N[C@@H](CCCCN)C(=O)NC(C)(C)C(=O)N[C@@H](CCC(N)=O)C(=O)N[C@@H](CCCNC(=N)N)C(=O)N[C@@H](CCC(N)=O)C(=O)N[C@@H](CCC(N)=O)C(=O)N[C@@H](C)C(=O)N[C@@H](CCC(=O)O)C(=O)N[C@@H](CCCCN)C(=O)N[C@@H](CC(N)=O)C(=O)N[C@@H](CCCCN)C(=O)N[C@@H](CCC(N)=O)C(=O)N[C@H](C(=O)N[C@@H](CC(C)C)C(=O)N[C@@H](C)C(=O)N[C@@H](CCC(N)=O)C(=O)N[C@H](C(N)=O)C(C)C)[C@@H](C)CC)[C@@H](C)CC)[C@@H](C)CC)C(C)C)C(C)C) [peptide of SEQ ID NO: 131] | 0.39
6 | IVLSLD[dV]PIKLK([AEEA-AEEA-γGlu-C18 diacid])QILLEQARQK[Aib]QRAQAEKNKRILERV-NH2 (N-terminus assumed; SMILES CC[C@H](C)[C@H](N)C(=O)N[C@H](C(=O)N[C@@H](CC(C)C)C(=O)N[C@@H](CO)C(=O)N[C@@H](CC(C)C)C(=O)N[C@@H](CC(=O)O)C(=O)N[C@@H](C(=O)N1CCC[C@H]1C(=O)N[C@H](C(=O)N[C@@H](CCCCN)C(=O)N[C@@H](CC(C)C)C(=O)N[C@@H](CCCCNC(=O)COCCOCCNC(=O)COCCOCCNC(=O)CC[C@H](NC(=O)CCCCCCCCCCCCCCCCC(=O)O)C(=O)O)C(=O)N[C@@H](CCC(N)=O)C(=O)N[C@H](C(=O)N[C@@H](CC(C)C)C(=O)N[C@@H](CC(C)C)C(=O)N[C@@H](CCC(=O)O)C(=O)N[C@@H](CCC(N)=O)C(=O)N[C@@H](C)C(=O)N[C@@H](CCCNC(=N)N)C(=O)N[C@@H](CCC(N)=O)C(=O)N[C@@H](CCCCN)C(=O)NC(C)(C)C(=O)N[C@@H](CCC(N)=O)C(=O)N[C@@H](CCCNC(=N)N)C(=O)N[C@@H](C)C(=O)N[C@@H](CCC(N)=O)C(=O)N[C@@H](C)C(=O)N[C@@H](CCC(=O)O)C(=O)N[C@@H](CCCCN)C(=O)N[C@@H](CC(N)=O)C(=O)N[C@@H](CCCCN)C(=O)N[C@@H](CCCNC(=N)N)C(=O)N[C@H](C(=O)N[C@@H](CC(C)C)C(=O)N[C@@H](CCC(=O)O)C(=O)N[C@@H](CCCNC(=N)N)C(=O)N[C@H](C(N)=O)C(C)C)[C@@H](C)CC)[C@@H](C)CC)[C@@H](C)CC)C(C)C)C(C)C) [peptide of SEQ ID NO: 140] | 0.1
